T1: Splicing Factor Proline/Glutamine Rich, PSF/SFPQ (human (endogenous in BJ fibroblasts)), P23246
T1 chain: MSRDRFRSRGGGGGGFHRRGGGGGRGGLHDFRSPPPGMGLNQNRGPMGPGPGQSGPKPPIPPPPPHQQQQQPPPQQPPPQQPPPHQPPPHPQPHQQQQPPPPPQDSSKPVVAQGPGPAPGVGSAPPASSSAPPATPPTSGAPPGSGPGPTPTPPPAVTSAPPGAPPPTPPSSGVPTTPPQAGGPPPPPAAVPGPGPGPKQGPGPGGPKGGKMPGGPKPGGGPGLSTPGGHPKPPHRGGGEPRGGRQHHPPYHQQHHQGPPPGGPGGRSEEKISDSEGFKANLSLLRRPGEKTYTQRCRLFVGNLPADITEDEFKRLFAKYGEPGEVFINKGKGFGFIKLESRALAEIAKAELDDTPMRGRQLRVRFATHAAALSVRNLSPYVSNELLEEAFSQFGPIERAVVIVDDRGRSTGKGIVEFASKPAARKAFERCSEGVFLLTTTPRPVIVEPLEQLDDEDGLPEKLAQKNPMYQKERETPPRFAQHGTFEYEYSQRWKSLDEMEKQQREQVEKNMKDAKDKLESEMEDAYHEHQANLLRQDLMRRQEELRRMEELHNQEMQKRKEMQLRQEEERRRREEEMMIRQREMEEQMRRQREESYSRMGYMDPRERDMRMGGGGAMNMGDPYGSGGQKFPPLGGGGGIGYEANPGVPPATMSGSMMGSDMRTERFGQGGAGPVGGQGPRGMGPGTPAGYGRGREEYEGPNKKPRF


Assays:
[1] = target: the molecule itself; assay: SEC; Superose 6 FPLC of nuclear and cytoplasmic extracts of BJ fibroblasts, untransfected or overexpressing NonO, day 8; 400 mM KCl, 20 mM HEPES pH 7.9, 1.0 mM MgCl2, 0.5 mM EGTA, 10% glycerol; fractions blotted with anti-NonO and anti-PSF; masses estimated from marker proteins
[2] = target: T1, Splicing Factor Proline/Glutamine Rich, …; assay: as above; details: remark: other sources report otherwise

stoichiometry N [2]	Binder	stoichiometry N [1]
	NonO overexpressed in BJ fibroblasts (natural protein, UniProt Q99K48 1-473, looked up, NonO cDNA expressed from a transfected plasmid; Its NonO fragments end at residue 473; The tag is therefore unknown; also called NonO OE; full-length NonO; source: BJ human diploid fibroblasts, stably transfected, nuclear or cytoplasmic extract) MQSNKAFNLEKQNHTPRKHHQHHHQQHHQQQQQQQQQQPPPPIPANGQQASSQNEGLTIDLKNFRKPGEKTFTQRSRLFVGNLPPDITEEEMRKLFEKYGKAGEVFIHKDKGFGFIRLETRTLAEIAKVELDNMPLRGKQLRVRFACHSASLTVRNLPQYVSNELLEEAFSVFGQVERAVVIVDDRGRPSGKGIVEFSGKPAARKALDRCSEGSFLLTTFPRPVTVEPMDQLDDEEGLPEKLVIKNQQFHKEREQPPRFAQPGSFEYEYAMRWKALIEMEKQQQDQVDRNIKEAREKLEMEMEAARHEHQVMLMRQDLMRRQEELRRMEELHNQEVQKRKQLELRQEEERRRREEEMRRQQEEMMRRQQEGFKGTFPDAREQEIRMGQMAMGGAMGINNRGAMPPAPVPPGTPAPPGPATMMPDGTLGLTPPTTERFGQAATMEGIGAIGGTPPAFNRPAPGAEFAPNKRRRY	2
2	Splicing Factor Proline/Glutamine Rich, PSF/SFPQ, P23246 1-707 (natural protein) MSRDRFRSRGGGGGGFHRRGGGGGRGGLHDFRSPPPGMGLNQNRGPMGPGPGQSGPKPPIPPPPPHQQQQQPPPQQPPPQQPPPHQPPPHPQPHQQQQPPPPPQDSSKPVVAQGPGPAPGVGSAPPASSSAPPATPPTSGAPPGSGPGPTPTPPPAVTSAPPGAPPPTPPSSGVPTTPPQAGGPPPPPAAVPGPGPGPKQGPGPGGPKGGKMPGGPKPGGGPGLSTPGGHPKPPHRGGGEPRGGRQHHPPYHQQHHQGPPPGGPGGRSEEKISDSEGFKANLSLLRRPGEKTYTQRCRLFVGNLPADITEDEFKRLFAKYGEPGEVFINKGKGFGFIKLESRALAEIAKAELDDTPMRGRQLRVRFATHAAALSVRNLSPYVSNELLEEAFSQFGPIERAVVIVDDRGRSTGKGIVEFASKPAARKAFERCSEGVFLLTTTPRPVIVEPLEQLDDEDGLPEKLAQKNPMYQKERETPPRFAQHGTFEYEYSQRWKSLDEMEKQQREQVEKNMKDAKDKLESEMEDAYHEHQANLLRQDLMRRQEELRRMEELHNQEMQKRKEMQLRQEEERRRREEEMMIRQREMEEQMRRQREESYSRMGYMDPRERDMRMGGGGAMNMGDPYGSGGQKFPPLGGGGGIGYEANPGVPPATMSGSMMGSDMRTERFGQGGAGPVGGQGPRGMGPGTPAGYGRGREEYEGPNKKPRF	
